Source: patent publication US20220331457A1 (TELIX INTERNATIONAL, published 2022)

Columns and labels:
[1] = biological target: T1, human carbonic anhydrase IX (CAIX) (human, UniProt Q16790 38-414); assay: SPR (Biacore T200), single cycle kinetics; antibody in HEK EBNA supernatant captured on Protein G chip, CAIX as analyte
Experimental: All single cycle kinetic experiments were run at 25° C. with HBS-P+ running buffer (pH 7.4) (GE Healthcare, Little Chalfont, UK). For direct comparison, all antibodies were captured on a Protein G chip (GE Healthcare, Uppsala, Sweden).
Antibodies were diluted in running buffer to a final concentration of 0.5 μg/ml, based on concentrations assessed by ELISA titre. At the start of each cycle, antibodies were loaded onto Fc2, Fc3 and Fc4 of the Protein G chip (GE Healthcare, Little Chalfont, UK). IgGs were captured at a flow rate of 10 μl/min to give an immobilisation level (RL) of ˜79 RU, the theoretical value to obtain an Rmax of ˜50 RU. The surface was then allowed to stabilise. Single cycle kinetic data was obtained with Carbonic Anhydrase IX (CAIX, Stratech, Newmarket, UK) as the analyte at a flow rate of 30 μl/min to minimise any potential mass transport limitations. […] The signal from the reference channel Fc1 (no antibody) was subtracted from that of Fc2, Fc3 and Fc4 to correct for differences in non-specific binding to a reference surface. […] The association phase for the four injections of increasing concentrations of CAIX was monitored for 200 seconds each time and a single dissociation phase was measured for 300 seconds following the last injection of CAIX. Regeneration of the Protein G surface was conducted using an injection of 10 mM glycine-HCL pH 1.5 followed by an injection of 10 mM glycine-HCL pH 1.5 containing 0.5% P20.

[2] = biological target: T1, human carbonic anhydrase IX (CAIX); assay: Biacore multicycle kinetic analysis (conclusion of Example 1)
Experimental: (§1) The purified antibodies were diluted to a concentration of 1 μg/ml in HBS-P+. […] Following capture, the surface was allowed to stabilise. Kinetic data was obtained using a flow rate of 30 μl/min to minimise any potential mass transfer effects. For the kinetics analysis, carbonic anhydrase IX (CAIX) was used. Multiple repeats of the blank (CAIX) and a repeat of a single concentration of the analyte were programmed into the kinetic run in order to check the stability of both the surface and analyte over the kinetic cycles. For kinetic analysis, a two-fold dilution range was selected from 50 nM to 0.078 nM CAIX. The association phase of CAIX was monitored for 280 seconds and the dissociation phase was monitored for 300 seconds. Regeneration of the Protein G surface was conducted using an injection of 10 mM glycine-HCL pH 1.5 followed by an injection of 10 mM glycine-HCL pH 1.5 containing 0.5% P20. The signal from the reference channel Fc1 was subtracted from that of Fc2, Fc3 and Fc4 to correct for differences in non-specific binding to a reference surface, and a global Rmax parameter was used in the 1-to-1 binding model. The relative KD was calculated by dividing the KD of the humanised variants by that of the chimeric antibody on the same chip.

[3] = biological target: T1, human carbonic anhydrase IX (CAIX); assay: SPR (Biacore T200), multicycle kinetics; purified CHO-expressed antibody captured on Protein G chip, CAIX as analyte
Experimental: as §1

B1: Girentuximab humanised VH1/Vκ1 IgG1 (antibody, V domains shown)
VH: DVKLVESGGGLVKPGGSLRLSCAASGFTFSNYYMSWVRQAPGKGLELVAAINSDGGITYYLDTVKGRFTISRDNAKNTLYLQMSSLKSEDTALYYCARHRSGYFSMDYWGQGTSVTVSS
VL: DIVMTQSPSFLSASVGDRVTITCKASQNVVSAVAWYQQKPGQAPKLLIYSASNRYTGVPDRFTGSGSGTDFTLTISSLQSEDLADYFCQQYSNYPWTFGGGTKVEIKR
[1]
  relative KD (against the reference chimeric VH0/Vκ0 IgG1): ≤ 2 fold

B2: Girentuximab humanised VH1/Vκ5 IgG1 (antibody, V domains shown)
VH: DVKLVESGGGLVKPGGSLRLSCAASGFTFSNYYMSWVRQAPGKGLELVAAINSDGGITYYLDTVKGRFTISRDNAKNTLYLQMSSLKSEDTALYYCARHRSGYFSMDYWGQGTSVTVSS
VL: DIQMTQSPSSLSASVGDRVTITCKASQNVVSAVAWYQQKPGQAPRRLIYSASNRYTGVPDRFSGSGSGTDFTLTISSLQAEDLADYYCQQYSNYPWTFGGGTKVEIKR
[1]
  binding result: binds

B3: Girentuximab humanised VH4/Vκ1 IgG1 (antibody)
heavy: not shown
light: DIVMTQSPSFLSASVGDRVTITCKASQNVVSAVAWYQQKPGQAPKLLIYSASNRYTGVPDRFTGSGSGTDFTLTISSLQSEDLADYFCQQYSNYPWTFGGGTKVEIKRTVAAPSVFIFPPSDEQLKSGTASVVCLLNNFYPREAKVQWKVDNALQSGNSQESVTEQDSKDSTYSLSSTLTLSKADYEKHKVYACEVTHQGLSSPVTKSFNRGEC
[1]
  relative KD (against the reference chimeric VH0/Vκ0 IgG1): ≤ 2 fold

B4: Girentuximab humanised VH5/Vκ2 IgG1 (antibody, V domains shown)
VH: EVQLVESGGGLVKPGGSLRLSCAASGFTFSNYYMSWVRQAPGKGLEWVAAINSDGGITYYLDTVKGRFTISRDNAKNTLYLQMNSLRAEDTALYYCARHRSGYFSMDYWGQGTLVTVSS
VL: DIVMTQSPSSLSASVGDRVTITCKASQNVVSAVAWYQQKPGQAPRLLIYSASNRYTGVPDRFTGSGSGTDFTLTISSLQAEDLADYFCQQYSNYPWTFGGGTKVEIKR
[1]
  binding result: binds

B5: Girentuximab humanised VH5/Vκ3 IgG1 (antibody, V domains shown)
VH: EVQLVESGGGLVKPGGSLRLSCAASGFTFSNYYMSWVRQAPGKGLEWVAAINSDGGITYYLDTVKGRFTISRDNAKNTLYLQMNSLRAEDTALYYCARHRSGYFSMDYWGQGTLVTVSS
VL: DIQMTQSPSSLSASVGDRVTITCKASQNVVSAVAWYQQKPGQAPRLLIYSASNRYTGVPDRFSGSGSGTDFTLTISSLQAEDLADYFCQQYSNYPWTFGGGTKVEIKR
[1]
  binding result: binds

B6: Girentuximab humanised VH3/Vκ1 IgG1 (antibody)
heavy: not shown
light: DIVMTQSPSFLSASVGDRVTITCKASQNVVSAVAWYQQKPGQAPKLLIYSASNRYTGVPDRFTGSGSGTDFTLTISSLQSEDLADYFCQQYSNYPWTFGGGTKVEIKRTVAAPSVFIFPPSDEQLKSGTASVVCLLNNFYPREAKVQWKVDNALQSGNSQESVTEQDSKDSTYSLSSTLTLSKADYEKHKVYACEVTHQGLSSPVTKSFNRGEC
[1]
  relative KD (against the reference chimeric VH0/Vκ0 IgG1): ≤ 2 fold

B7: Girentuximab humanised VH4/Vκ4 IgG1 (H310A, H435Q) (antibody)
heavy: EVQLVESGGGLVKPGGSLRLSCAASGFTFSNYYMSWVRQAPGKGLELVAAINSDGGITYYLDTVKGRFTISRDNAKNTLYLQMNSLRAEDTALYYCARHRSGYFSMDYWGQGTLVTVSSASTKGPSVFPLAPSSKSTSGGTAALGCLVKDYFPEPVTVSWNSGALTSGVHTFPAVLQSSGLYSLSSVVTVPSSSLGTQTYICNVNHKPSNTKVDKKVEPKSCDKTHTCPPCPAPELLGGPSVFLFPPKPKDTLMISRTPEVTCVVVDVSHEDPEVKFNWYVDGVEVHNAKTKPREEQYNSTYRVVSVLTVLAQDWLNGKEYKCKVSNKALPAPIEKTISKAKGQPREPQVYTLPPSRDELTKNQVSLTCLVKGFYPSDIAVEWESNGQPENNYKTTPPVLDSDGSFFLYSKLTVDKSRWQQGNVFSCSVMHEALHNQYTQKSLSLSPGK
light: DIQMTQSPSSLSASVGDRVTITCKASQNVVSAVAWYQQKPGQAPRLLIYSASNRYTGVPDRFSGSGSGTDFTLTISSLQAEDLADYYCQQYSNYPWTFGGGTKVEIKRTVAAPSVFIFPPSDEQLKSGTASVVCLLNNFYPREAKVQWKVDNALQSGNSQESVTEQDSKDSTYSLSSTLTLSKADYEKHKVYACEVTHQGLSSPVTKSFNRGEC
[2]
  binding relative to VH0/Vκ0 with the same IgG backbone: ≤ 2 fold
[3]
  relative KD (KD of the variant divided by KD of the chimeric antibody with the same IgG constant domain): ≤ 2 fold

B8: Girentuximab humanised VH5/Vκ1 IgG1 (antibody, V domains shown)
VH: EVQLVESGGGLVKPGGSLRLSCAASGFTFSNYYMSWVRQAPGKGLEWVAAINSDGGITYYLDTVKGRFTISRDNAKNTLYLQMNSLRAEDTALYYCARHRSGYFSMDYWGQGTLVTVSS
VL: DIVMTQSPSFLSASVGDRVTITCKASQNVVSAVAWYQQKPGQAPKLLIYSASNRYTGVPDRFTGSGSGTDFTLTISSLQSEDLADYFCQQYSNYPWTFGGGTKVEIKR
[1]
  binding result: binds

B9: Girentuximab humanised VH1/Vκ4 IgG1 (antibody, V domains shown)
VH: DVKLVESGGGLVKPGGSLRLSCAASGFTFSNYYMSWVRQAPGKGLELVAAINSDGGITYYLDTVKGRFTISRDNAKNTLYLQMSSLKSEDTALYYCARHRSGYFSMDYWGQGTSVTVSS
VL: DIQMTQSPSSLSASVGDRVTITCKASQNVVSAVAWYQQKPGQAPRLLIYSASNRYTGVPDRFSGSGSGTDFTLTISSLQAEDLADYYCQQYSNYPWTFGGGTKVEIKR
[1]
  relative KD (against the reference chimeric VH0/Vκ0 IgG1): ≤ 2 fold

B10: Girentuximab humanised VH3/Vκ5 IgG1 (antibody)
heavy: not shown
light: DIQMTQSPSSLSASVGDRVTITCKASQNVVSAVAWYQQKPGQAPRRLIYSASNRYTGVPDRFSGSGSGTDFTLTISSLQAEDLADYYCQQYSNYPWTFGGGTKVEIKRTVAAPSVFIFPPSDEQLKSGTASVVCLLNNFYPREAKVQWKVDNALQSGNSQESVTEQDSKDSTYSLSSTLTLSKADYEKHKVYACEVTHQGLSSPVTKSFNRGEC
[1]
  binding result: binds

B11: Girentuximab humanised VH1/Vκ3 IgG1 (antibody, V domains shown)
VH: DVKLVESGGGLVKPGGSLRLSCAASGFTFSNYYMSWVRQAPGKGLELVAAINSDGGITYYLDTVKGRFTISRDNAKNTLYLQMSSLKSEDTALYYCARHRSGYFSMDYWGQGTSVTVSS
VL: DIQMTQSPSSLSASVGDRVTITCKASQNVVSAVAWYQQKPGQAPRLLIYSASNRYTGVPDRFSGSGSGTDFTLTISSLQAEDLADYFCQQYSNYPWTFGGGTKVEIKR
[1]
  relative KD (against the reference chimeric VH0/Vκ0 IgG1): ≤ 2 fold

B12: Girentuximab humanised VH5/Vκ4 IgG1 (antibody, V domains shown)
VH: EVQLVESGGGLVKPGGSLRLSCAASGFTFSNYYMSWVRQAPGKGLEWVAAINSDGGITYYLDTVKGRFTISRDNAKNTLYLQMNSLRAEDTALYYCARHRSGYFSMDYWGQGTLVTVSS
VL: DIQMTQSPSSLSASVGDRVTITCKASQNVVSAVAWYQQKPGQAPRLLIYSASNRYTGVPDRFSGSGSGTDFTLTISSLQAEDLADYYCQQYSNYPWTFGGGTKVEIKR
[1]
  binding result: binds

B13: Girentuximab humanised VH3/Vκ4 IgG1 (H310A, H435Q) (antibody)
heavy: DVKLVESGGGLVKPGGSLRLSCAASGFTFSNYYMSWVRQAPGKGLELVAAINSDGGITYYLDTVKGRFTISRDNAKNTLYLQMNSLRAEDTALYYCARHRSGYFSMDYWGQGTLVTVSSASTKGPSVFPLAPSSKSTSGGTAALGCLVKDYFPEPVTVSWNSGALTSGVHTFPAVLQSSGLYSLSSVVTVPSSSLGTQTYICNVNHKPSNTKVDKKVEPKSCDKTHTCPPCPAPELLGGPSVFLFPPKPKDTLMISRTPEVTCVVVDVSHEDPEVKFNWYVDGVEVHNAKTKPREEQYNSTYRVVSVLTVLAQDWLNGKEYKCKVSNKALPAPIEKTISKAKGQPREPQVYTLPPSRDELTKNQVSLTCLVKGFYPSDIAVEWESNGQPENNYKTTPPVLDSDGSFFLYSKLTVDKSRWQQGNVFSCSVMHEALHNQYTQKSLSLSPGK
light: DIQMTQSPSSLSASVGDRVTITCKASQNVVSAVAWYQQKPGQAPRLLIYSASNRYTGVPDRFSGSGSGTDFTLTISSLQAEDLADYYCQQYSNYPWTFGGGTKVEIKRTVAAPSVFIFPPSDEQLKSGTASVVCLLNNFYPREAKVQWKVDNALQSGNSQESVTEQDSKDSTYSLSSTLTLSKADYEKHKVYACEVTHQGLSSPVTKSFNRGEC
[2]
  binding relative to VH0/Vκ0 with the same IgG backbone: ≤ 2 fold
[3]
  relative KD (KD of the variant divided by KD of the chimeric antibody with the same IgG constant domain): ≤ 2 fold

B14: Girentuximab humanised VH4/Vκ3 IgG1 (H310A, H435Q) (antibody)
heavy: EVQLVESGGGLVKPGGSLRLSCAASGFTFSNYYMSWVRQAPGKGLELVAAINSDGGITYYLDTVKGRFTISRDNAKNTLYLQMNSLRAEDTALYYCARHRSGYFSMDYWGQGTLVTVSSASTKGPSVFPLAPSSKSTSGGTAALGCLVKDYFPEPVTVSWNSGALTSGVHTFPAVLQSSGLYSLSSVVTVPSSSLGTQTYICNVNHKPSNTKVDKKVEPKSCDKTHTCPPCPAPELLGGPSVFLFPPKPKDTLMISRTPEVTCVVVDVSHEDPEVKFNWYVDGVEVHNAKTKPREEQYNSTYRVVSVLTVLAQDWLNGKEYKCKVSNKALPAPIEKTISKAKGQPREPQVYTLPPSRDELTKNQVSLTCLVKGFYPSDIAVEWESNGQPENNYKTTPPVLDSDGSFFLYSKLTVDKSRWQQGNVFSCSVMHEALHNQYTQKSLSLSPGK
light: DIQMTQSPSSLSASVGDRVTITCKASQNVVSAVAWYQQKPGQAPRLLIYSASNRYTGVPDRFSGSGSGTDFTLTISSLQAEDLADYFCQQYSNYPWTFGGGTKVEIKRTVAAPSVFIFPPSDEQLKSGTASVVCLLNNFYPREAKVQWKVDNALQSGNSQESVTEQDSKDSTYSLSSTLTLSKADYEKHKVYACEVTHQGLSSPVTKSFNRGEC
[2]
  binding relative to VH0/Vκ0 with the same IgG backbone: ≤ 2 fold
[3]
  relative KD (KD of the variant divided by KD of the chimeric antibody with the same IgG constant domain): ≤ 2 fold

B15: Girentuximab humanised VH1/Vκ2 IgG1 (antibody, V domains shown)
VH: DVKLVESGGGLVKPGGSLRLSCAASGFTFSNYYMSWVRQAPGKGLELVAAINSDGGITYYLDTVKGRFTISRDNAKNTLYLQMSSLKSEDTALYYCARHRSGYFSMDYWGQGTSVTVSS
VL: DIVMTQSPSSLSASVGDRVTITCKASQNVVSAVAWYQQKPGQAPRLLIYSASNRYTGVPDRFTGSGSGTDFTLTISSLQAEDLADYFCQQYSNYPWTFGGGTKVEIKR
[1]
  relative KD (against the reference chimeric VH0/Vκ0 IgG1): ≤ 2 fold

B16: Girentuximab humanised VH5/Vκ5 IgG1 (antibody, V domains shown)
VH: EVQLVESGGGLVKPGGSLRLSCAASGFTFSNYYMSWVRQAPGKGLEWVAAINSDGGITYYLDTVKGRFTISRDNAKNTLYLQMNSLRAEDTALYYCARHRSGYFSMDYWGQGTLVTVSS
VL: DIQMTQSPSSLSASVGDRVTITCKASQNVVSAVAWYQQKPGQAPRRLIYSASNRYTGVPDRFSGSGSGTDFTLTISSLQAEDLADYYCQQYSNYPWTFGGGTKVEIKR
[1]
  binding result: binds

B17: Girentuximab humanised VH4/Vκ5 IgG1 (antibody)
heavy: not shown
light: DIQMTQSPSSLSASVGDRVTITCKASQNVVSAVAWYQQKPGQAPRRLIYSASNRYTGVPDRFSGSGSGTDFTLTISSLQAEDLADYYCQQYSNYPWTFGGGTKVEIKRTVAAPSVFIFPPSDEQLKSGTASVVCLLNNFYPREAKVQWKVDNALQSGNSQESVTEQDSKDSTYSLSSTLTLSKADYEKHKVYACEVTHQGLSSPVTKSFNRGEC
[1]
  binding result: binds

B18: Girentuximab humanised VH4/Vκ4 IgG4 (S228P, L235E, H310A, H435Q) (antibody)
heavy: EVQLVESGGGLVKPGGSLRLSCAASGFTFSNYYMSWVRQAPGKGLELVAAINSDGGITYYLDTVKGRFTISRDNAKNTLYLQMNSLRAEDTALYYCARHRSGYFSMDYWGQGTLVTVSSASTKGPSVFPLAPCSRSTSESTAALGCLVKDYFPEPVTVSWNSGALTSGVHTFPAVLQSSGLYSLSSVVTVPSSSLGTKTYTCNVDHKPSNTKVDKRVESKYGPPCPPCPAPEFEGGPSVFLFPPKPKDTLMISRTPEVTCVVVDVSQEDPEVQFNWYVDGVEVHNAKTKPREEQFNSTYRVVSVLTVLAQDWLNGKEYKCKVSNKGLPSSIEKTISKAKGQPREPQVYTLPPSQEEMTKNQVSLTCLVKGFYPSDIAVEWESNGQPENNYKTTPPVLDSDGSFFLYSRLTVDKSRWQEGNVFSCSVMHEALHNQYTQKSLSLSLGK
light: DIQMTQSPSSLSASVGDRVTITCKASQNVVSAVAWYQQKPGQAPRLLIYSASNRYTGVPDRFSGSGSGTDFTLTISSLQAEDLADYYCQQYSNYPWTFGGGTKVEIKRTVAAPSVFIFPPSDEQLKSGTASVVCLLNNFYPREAKVQWKVDNALQSGNSQESVTEQDSKDSTYSLSSTLTLSKADYEKHKVYACEVTHQGLSSPVTKSFNRGEC
[2]
  binding relative to VH0/Vκ0 with the same IgG backbone: ≤ 2 fold
[3]
  relative KD (KD of the variant divided by KD of the chimeric antibody with the same IgG constant domain): ≤ 2 fold

B19: Girentuximab humanised VH4/Vκ3 IgG4 (S228P, L235E, H310A, H435Q) (antibody)
heavy: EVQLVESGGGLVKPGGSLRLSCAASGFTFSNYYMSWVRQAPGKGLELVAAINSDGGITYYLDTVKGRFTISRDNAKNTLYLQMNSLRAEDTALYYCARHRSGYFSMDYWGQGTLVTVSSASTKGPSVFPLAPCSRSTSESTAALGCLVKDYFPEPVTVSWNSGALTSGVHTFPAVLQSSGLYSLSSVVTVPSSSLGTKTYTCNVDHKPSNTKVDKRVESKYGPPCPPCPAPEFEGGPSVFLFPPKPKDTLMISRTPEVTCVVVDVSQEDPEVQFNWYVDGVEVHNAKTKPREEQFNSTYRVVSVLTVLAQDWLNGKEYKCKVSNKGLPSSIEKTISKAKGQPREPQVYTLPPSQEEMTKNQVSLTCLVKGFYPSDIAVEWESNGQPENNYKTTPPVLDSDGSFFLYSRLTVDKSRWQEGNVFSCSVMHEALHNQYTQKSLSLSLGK
light: DIQMTQSPSSLSASVGDRVTITCKASQNVVSAVAWYQQKPGQAPRLLIYSASNRYTGVPDRFSGSGSGTDFTLTISSLQAEDLADYFCQQYSNYPWTFGGGTKVEIKRTVAAPSVFIFPPSDEQLKSGTASVVCLLNNFYPREAKVQWKVDNALQSGNSQESVTEQDSKDSTYSLSSTLTLSKADYEKHKVYACEVTHQGLSSPVTKSFNRGEC
[2]
  binding relative to VH0/Vκ0 with the same IgG backbone: ≤ 2 fold
[3]
  relative KD (KD of the variant divided by KD of the chimeric antibody with the same IgG constant domain): ≤ 2 fold

B20: Girentuximab humanised VH3/Vκ4 IgG4 (S228P, L235E, H310A, H435Q) (antibody)
heavy: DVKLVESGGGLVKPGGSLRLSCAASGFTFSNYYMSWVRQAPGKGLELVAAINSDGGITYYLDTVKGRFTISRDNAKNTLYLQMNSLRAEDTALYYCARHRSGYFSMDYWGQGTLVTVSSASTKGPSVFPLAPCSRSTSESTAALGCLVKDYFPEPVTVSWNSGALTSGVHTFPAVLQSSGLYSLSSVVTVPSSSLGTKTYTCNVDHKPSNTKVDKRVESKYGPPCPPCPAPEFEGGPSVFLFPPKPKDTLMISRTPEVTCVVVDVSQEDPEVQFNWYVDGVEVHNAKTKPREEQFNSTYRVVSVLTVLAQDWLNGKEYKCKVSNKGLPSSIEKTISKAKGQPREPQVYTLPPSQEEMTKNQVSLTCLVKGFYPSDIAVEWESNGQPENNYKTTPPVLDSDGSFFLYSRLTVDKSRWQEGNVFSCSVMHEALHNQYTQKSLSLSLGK
light: DIQMTQSPSSLSASVGDRVTITCKASQNVVSAVAWYQQKPGQAPRLLIYSASNRYTGVPDRFSGSGSGTDFTLTISSLQAEDLADYYCQQYSNYPWTFGGGTKVEIKRTVAAPSVFIFPPSDEQLKSGTASVVCLLNNFYPREAKVQWKVDNALQSGNSQESVTEQDSKDSTYSLSSTLTLSKADYEKHKVYACEVTHQGLSSPVTKSFNRGEC
[2]
  binding relative to VH0/Vκ0 with the same IgG backbone: ≤ 2 fold
[3]
  relative KD (KD of the variant divided by KD of the chimeric antibody with the same IgG constant domain): ≤ 2 fold
